# Experimental data taken from patent US20190225685A1, “ANTI-DLL3 ANTIBODY DRUG CONJUGATES AND METHODS OF USE” (ABBVIE STEMCENTRX LLC, priority 2018, published 2019).
# How the values were obtained:
# [1] = system: recurrent/refractory small cell lung cancer (SCLC); conditions: single agent; cited from earlier work
# [2] = system: GB8 tumors (GBM PDX tumor line); assay: Glioblastoma PDX tumor growth suppression in immunodeficient mice; assay type: in vivo, female NOD/SCID mice; conditions: single dose 0.2 mg/kg, intraperitoneal, subcutaneous GB8 tumors, 20 days post-treatment (FIG. 3)
# Protocol: (§1) A GBM PDX tumor line was grown subcutaneously in the flanks of female NOD/SCID mice using art-recognized techniques. Tumor volumes and mouse weights were monitored once or twice per week. When tumor volumes reached 150-250 mm^3, mice were randomly assigned to treatment groups and injected intraperitoneally with SC16.56 PDB3 or an isotype control human IgG1.PDB3. SC16.56 PDB3 comprises the same humanized antibody as found in Rova-t but employs a different PBD cytotoxin. Following treatment, tumor volumes and mouse weights were monitored until tumors exceeded 1000 mm^3 or mice became sick.
# [3] = Adverse health effects in treated tumor-bearing mice; assay type: in vivo, female NOD/SCID mice; conditions: tumor-bearing NOD/SCID mice treated intraperitoneally
# Protocol: as §1
Molecule,clinical activity [1],tumor growth (tumor volume) [2],adverse health effects [3]
rovalpituzumab tesirine [Rova-T],clinically demonstrated single agent activity,–,–
"SC16.56 PBD3: anti-DLL3 ADC; comprises the same humanized antibody as found in Rova-T but employs a different PBD cytotoxin (conjugate, chains of the INN, looked up, PBD3 cytotoxin conjugate) VH: QVQLVQSGAEVKKPGASVKVSCKASGYTFTNYGMNWVRQAPGQGLEWMGWINTYTGEPTYADDFKGRVTMTTDTSTSTAYMELRSLRSDDTAVYYCARIGDSSPSDYWGQGTLVTVSS VL: EIVMTQSPATLSVSPGERATLSCKASQSVSNDVVWYQQKPGQAPRLLIYYASNRYTGIPARFSGSGSGTEFTLTISSLQSEDFAVYYCQQDYTSPWTFGQGTKLEIK",–,tumor suppression,"did not exhibit any adverse health effects beyond those typically seen in immunodeficient, tumor-bearing NOD/SCID mice"
